Measurements from patent US20050143285A1.
Values joined by “and” are separate entries in the source; they are usually repeats but may differ in a detail not shown here. Equal values may be shown once. Read-outs that look alike come from different tables or passages of the source.

T1: Aplysia californica acetylcholine binding protein (AChBP) (Aplysia californica)
T1 chain: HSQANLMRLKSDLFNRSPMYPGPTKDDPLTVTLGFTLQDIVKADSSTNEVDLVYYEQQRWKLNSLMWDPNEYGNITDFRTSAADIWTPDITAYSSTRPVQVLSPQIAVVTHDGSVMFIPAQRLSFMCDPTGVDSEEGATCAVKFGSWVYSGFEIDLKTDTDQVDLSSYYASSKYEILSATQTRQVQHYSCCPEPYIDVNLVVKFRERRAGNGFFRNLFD


What was measured:
[1] = target: T2, Lymnaea stagnalis acetylcholine binding protein (AChBP) (Lymnaea stagnalis), P58154; experiment: stopped-flow, intrinsic tryptophan fluorescence quenching of Lymnaea AChBP
[2] = target: T2, Lymnaea stagnalis acetylcholine binding …; experiment: stopped-flow fluorescence; Kd calculated from k-1/k1
[3] = target: T2, Lymnaea stagnalis acetylcholine binding …
[4] = target: T1, Aplysia californica acetylcholine …
[5] = target: T2, Lymnaea stagnalis acetylcholine binding …; experiment: stopped-flow spectrofluorimetry, excitation 280 nm, emission above 305 nm
[6] = target: T2, Lymnaea stagnalis acetylcholine binding …; experiment: ratio of Kd on Lymnaea AChBP to Kd on Aplysia AChBP
[7] = target: T2, Lymnaea stagnalis acetylcholine binding …; experiment: equilibrium titration, intrinsic tryptophan fluorescence of Lymnaea AChBP
[8] = target: T2, Lymnaea stagnalis acetylcholine binding …; remark: listed apart in the source
[9] = target: T2, Lymnaea stagnalis acetylcholine binding …; remark: listed apart in the source

T2 sequence (P58154 20-229): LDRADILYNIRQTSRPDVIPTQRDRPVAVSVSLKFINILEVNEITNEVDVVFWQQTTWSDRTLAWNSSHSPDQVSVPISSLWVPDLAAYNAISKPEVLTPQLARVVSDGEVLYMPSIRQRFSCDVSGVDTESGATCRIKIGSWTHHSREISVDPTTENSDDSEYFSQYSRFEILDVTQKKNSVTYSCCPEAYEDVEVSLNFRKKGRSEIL

Row | Binder | koff [1] | kon [1] | Kd [2] | koff [3] | fold lower affinity than for L-AChBP [4] | kon [5] | Kd Ratio L/A [6] | percent quenching of the unliganded receptor fluorescence [7] | Kd [8] | fold slower rate of association than epibatidine [9] | k2 (unimolecular step of association) [9]
1 | α-Cobratoxin, P01391 1-71 (modifications not checked) IRCFITPDITSKDCPNGHVCYTKTWCDAFCSIRGKRVDLGCAATCPTVKTGVDIQCCSTDNCNPFPTRKRP | 0.011 s⁻¹ | 3.3e+06 M⁻¹ s⁻¹ | 3.2 nM |  |  |  |  |  |  |  | 
2 | α-bungarotoxin, P60615 22-95 (modifications not checked) IVCHTTATSPISAVTCPPGENLCYRKMWCDAFCSSRGKVVELGCAATCPSKKPYEEVTCCSTDKCNPHPKQRPG | 0.0017 s⁻¹ | 970000 M⁻¹ s⁻¹ | 1.8 nM | 0.001 s⁻¹ | 100 fold | 900000 M⁻¹ s⁻¹ | 0.0071 | 15% and 20% | 1.8 nM | 200 fold | 0.34 s⁻¹
3 | GGKPDLRPCHPPCHYIPRPKPR (modifications not checked) [Waglerin-1, P24335 3-24] | 31 s⁻¹ | 4.8e+06 M⁻¹ s⁻¹ | 6500 nM |  |  |  |  |  |  |  | 
